Blank lines part the entries; values can stand above or below the molecule they belong to.
Key:
[1] = biological target: YjoB-NTD (residues 1-159), oligomer form NTD-1 (B. subtilis 168) (UniProt O34703); test: crystal structure
[2] = biological target: KatA, dimer form (KatA-2) (B. subtilis) (UniProt P26901); test: SEC
[3] = biological target: T1, KatA, monomeric form (KatA-1) (B. subtilis, UniProt P26901 1-483); test: SEC
T1 sequence (looked up): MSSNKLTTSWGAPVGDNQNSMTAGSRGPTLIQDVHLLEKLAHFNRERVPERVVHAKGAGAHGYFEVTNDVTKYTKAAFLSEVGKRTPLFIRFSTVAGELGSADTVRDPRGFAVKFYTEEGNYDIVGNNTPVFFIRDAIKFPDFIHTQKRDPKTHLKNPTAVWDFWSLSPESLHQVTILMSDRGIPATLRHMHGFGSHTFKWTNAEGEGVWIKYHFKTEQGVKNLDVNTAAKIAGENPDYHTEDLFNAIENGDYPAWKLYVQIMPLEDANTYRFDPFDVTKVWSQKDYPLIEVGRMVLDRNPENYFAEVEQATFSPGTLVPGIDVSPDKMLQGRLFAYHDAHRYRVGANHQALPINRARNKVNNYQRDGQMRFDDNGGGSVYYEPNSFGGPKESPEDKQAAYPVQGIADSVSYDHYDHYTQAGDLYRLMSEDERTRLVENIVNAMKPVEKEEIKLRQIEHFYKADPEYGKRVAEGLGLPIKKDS

crystal structure = biological target: the molecule itself; test: crystal structure
SEC = biological target: the molecule itself; test: SEC

B1: Bacillus subtilis YjoB (residues 1-423) (natural protein, B. subtilis 168, UniProt O34703 1-423, looked up)
chain: MTNIPFIYQYEEKENERAAAGYGTFGYLITRIEETLYDQYGVFYELYASDDPNTEYWELLVEDVRSGSLEPEHVAYIFEKLEKKTFAYDEDEKEPDYTVHKSIRNSVYAYPEKGVAFARIPYFQDGSIMSFDCLFAVNDEKMRAFLEGVRPRLWEKSKRKVTVFTDGDGGTSREQEAIVREVQRSQVIMNPLLKKEIYRSIDQFFHSDKSFYQTYDIPYKRGILLYGPPGNGKTTLVKSIAGSIDAPVAYWQITEFTSSETIEEVFQAARRLAPAVLVIEDIDSMPEDVRSFFLNTLDGATSKEGLFLIGTTNYPEEIDPGLMNRAGRFDRAYEIGLPDEELRLEYMKMRGFGIFLSEGEIKNAAKLTEGFSFAQLGELYVSSALQWHQEGNHHIETMVKDMTGEQRKSQRGSWMERNKVGFH
binding result [3]: binds
stoichiometry N (crystal structure): 6

B2: YjoB-AAA domain (residues 159-423) (domain or fragment, B. subtilis 168, UniProt O34703 159-423, looked up)
chain: RKVTVFTDGDGGTSREQEAIVREVQRSQVIMNPLLKKEIYRSIDQFFHSDKSFYQTYDIPYKRGILLYGPPGNGKTTLVKSIAGSIDAPVAYWQITEFTSSETIEEVFQAARRLAPAVLVIEDIDSMPEDVRSFFLNTLDGATSKEGLFLIGTTNYPEEIDPGLMNRAGRFDRAYEIGLPDEELRLEYMKMRGFGIFLSEGEIKNAAKLTEGFSFAQLGELYVSSALQWHQEGNHHIETMVKDMTGEQRKSQRGSWMERNKVGFH
stoichiometry N (SEC): 6

Results, then the molecule that gave them:

stoichiometry N [1]: 12
Molecule: YjoB-NTD (residues 1-159), oligomer form NTD-1 (from UniProt O34703 1-159) (domain or fragment)

stoichiometry N [2]: 2
Molecule: KatA, dimer form (KatA-2) (from UniProt P26901 1-483) (enzyme)

Source: article doi:10.1101/2022.05.06.490860 (bioRxiv, 2022)
